Reference: article PMC8032705, “Identification and characterization of piperine synthase from black pepper, Piper nigrum L” (Communications Biology, 2021)

Tests used:
Assay type in all cases: biochemical, Piper nigrum
[1] = substrate: C1CCNCC1; assay: HPLC-UV/Vis and LC-MS of piperine (plus isomers) formation; settings: co-substrate piperoyl-CoA, pH 8.0, 30 mM Tris/HCl, 1 mM DTT
Source text: (§1) HPLC-UV/Vis and LC-MS of piperine (plus isomers) formation on piperine synthase (PipBAHD2)

[2] = substrate: CC(C)(COP(=O)(O)OP(=O)(O)OC[C@H]1O[C@@H](n2cnc3c(N)ncnc32)[C@H](O)[C@@H]1OP(=O)(O)O)[C@@H](O)C(=O)NCCC(=O)NCCSC(=O)/C=C/C=C/c1ccc2c(c1)OCO2; assay: as above; settings: co-substrate piperidine, pH 8.0, 30 mM Tris/HCl, 1 mM DTT
Source text: as §1

[3] = substrate: C1CCNCC1; assay: HPLC-UV/Vis and LC-MS of piperine isomer formation; settings: co-substrate piperoyl-CoA, pH 8.0, 30 mM Tris/HCl, 1 mM DTT
Source text: (§2) HPLC-UV/Vis and LC-MS of piperine isomer formation on piperamide synthase (PipBAHD1)

[4] = substrate: CC(C)(COP(=O)(O)OP(=O)(O)OC[C@H]1O[C@@H](n2cnc3c(N)ncnc32)[C@H](O)[C@@H]1OP(=O)(O)O)[C@@H](O)C(=O)NCCC(=O)NCCSC(=O)/C=C/C=C/c1ccc2c(c1)OCO2; assay: HPLC-UV/Vis and LC-MS of piperine isomer formation; settings: co-substrate piperidine, pH 8.0, 30 mM Tris/HCl, 1 mM DTT
Source text: as §2

| Protein | Km [1] | Km [2] | kcat [2] | kcat/Km [2] | Km [3] | kcat [3] | kcat/Km [3] | Km [4] | kcat [4] | kcat/Km [4] |
| --- | --- | --- | --- | --- | --- | --- | --- | --- | --- | --- |
| piperine synthase (PipBAHD2) (Piper nigrum) (protein, full-length cDNA from immature fruits, N-terminal His10 tag (pET-16b), E. coli LEMO21, IMAC) MAPSSQLEFNVVRKQPELLPPAEPTPFEWKELSDIDDQDGLRLHISGFFIYPPSTMSNVGRDNVARDIRLGLSKAMVFYYPLAGRIREGPNRKLSVECTGEGIMYCEADADVRLEQFGDIGALSMPFPFMDKVMFETVDDGILGTPLMYFQSTRFICGGIVIAGCYNHAIADGLGFYMFMAAAAQLARGAASPTPLPVWQRERLLSRVPPRVTFIHHEYIHDTPKTETANPLDNEPWPLHSIFFTRVDVAALRAQLPGHLRKSATSFEIISACLWRCRTAALRFAPDELSRLIIAVNARTKFGPPLPQGYYGNSIMLPMVVSEAGKLVLSGLGYAVELVIEAKGKVTEEYVKSVADYLVLNGRPHYVVTNTYLVSDLRQLVEMSKFDWGWGKPAYVGPADVGENAISFLATLKNGEEEGVVVPIRLPESAVGRFKSEVSKMVSFGCLEDVKPNRDGYLSRM | 7.6 ± 0.5 mM | 0.342 ± 0.060 mM | 1.01 ± 0.12 s⁻¹ | 2950 M⁻¹ s⁻¹ |  |  |  |  |  |  |
| piperamide synthase (PipBAHD1) (Piper nigrum) (protein, full-length cDNA from immature fruits, N-terminal His10 tag (pET-16b), E. coli LEMO21, IMAC) MASSQLEFNVERKQPELLGPAEPTPYELKELSDIDDQDGVRLFLTAIFIYPPPTKTSMPTRKTDPASDIRRGLSKAMVYYYPFAGRIREGPNRKLSVDCTGEGIVFCEADADIRLDGLGDVEVLRPPYPFIDKMTLGEGSAILGAPLVYVQVTRFACGGFIITGRFNHVMADAPGFTMFMKAAADLARGATVPMPLPVWERERYRSRVPPRVTFAHHEYMHVDDPPPRPTSEPWSLHSAFFTKADVATLRAQLPADLRKAATSFDIITACMWRCRVSALQYGPDEVVRLIVAVNSRTKFDPPLTGYYGNGLMLPAAVTEAGKLVGSDLGYAVELVREAKGKVTEEYVRSAADFLVLNGRVHFVVSNTFLVSDLRRLIDLANMDWGWGKAVSGGPVDVGENVISFLATSKNSAGEEGAVVPFCLPDSALGRFTSEVKKLVCFRPLENAAASNPDHGYMSRM |  |  |  |  | 8.69 ± 3.6 mM | 0.27 ± 0.02 s⁻¹ | 31.1 M⁻¹ s⁻¹ | 0.196 ± 0.009 mM | 0.35 ± 0.01 s⁻¹ | 1790 M⁻¹ s⁻¹ |
